Results as given in paper PMC12136000.

Target: FLAG-tagged eIF3d (wild-type eIF3D-FLAG) (UniProt O15371)
Assay: co-IP; HeLa lysate (50 mM Tris pH7.5, 150 mM NaCl, 1% Triton-X, Benzonase) on anti-flag-beads for 2 h at 4 °C, three washes, western blot; cells treated for 2 h with DMSO or with 3 µM of the CK2 inhibitor CX-5011 before lysis

UniProt O15371, sequence (O15371 whole entry): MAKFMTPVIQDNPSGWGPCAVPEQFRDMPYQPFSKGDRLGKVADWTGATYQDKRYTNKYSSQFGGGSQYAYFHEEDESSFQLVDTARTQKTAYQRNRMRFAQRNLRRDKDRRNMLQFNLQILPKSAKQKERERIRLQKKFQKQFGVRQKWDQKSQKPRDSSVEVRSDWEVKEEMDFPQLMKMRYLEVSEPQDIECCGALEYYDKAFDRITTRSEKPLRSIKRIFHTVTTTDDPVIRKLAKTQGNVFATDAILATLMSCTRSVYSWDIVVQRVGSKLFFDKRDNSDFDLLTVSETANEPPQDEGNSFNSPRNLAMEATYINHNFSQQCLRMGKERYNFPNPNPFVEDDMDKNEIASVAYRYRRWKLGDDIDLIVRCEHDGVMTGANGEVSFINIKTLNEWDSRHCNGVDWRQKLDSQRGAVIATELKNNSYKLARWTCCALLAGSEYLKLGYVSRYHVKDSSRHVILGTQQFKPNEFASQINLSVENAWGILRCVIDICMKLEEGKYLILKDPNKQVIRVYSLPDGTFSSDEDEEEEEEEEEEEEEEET

decrease of co-precipitation (IP relative to input) after the CK2 inhibitor CX-5011: 37 % decrease
Substance: eIF4A (from UniProt P60842 1-406) (natural protein)
